Assay results: US9526766B2, “Potentiation of antibiotic treatment with a protein-lipid complex” (priority 2012, dated 2016)

How the values were obtained:
Escherichia coli [1] = conditions: concentrations up to 5 mg/ml; cited from earlier work
Staphylococci [2] = conditions: concentrations up to 5 mg/ml; cited from earlier work
Staphylococci [3] = test: Gentamicin, Vancomycin FL and Bocillin FL binding; assay type: cell-based, Staphylococcus aureus; conditions: for Cell-associated level of vancomycin on addition of ALAFAC / Bocillin FL association with cells on addition of ALAFAC: 100 μg/mL ALAFAC
Description: Gentamicin, Vancomycin and Bocillin FL Binding. We adapted a previously described method using AlexaFluor 488-gentamicin, vancomycin FL and Bocillin FL as reporter antibiotics to investigate association of these compounds with the staphylococcal cells. In brief, indicated strains were grown in TSB to an OD600nm of 0.5. Antibiotics were added at the following concentrations: Gentamicin at 50 μg/mL, Vancomycin FL at 20 μg/mL, Bocillin FL at 25 μg/mL alone, or in combination with ALAFAC at 100 μg/mL.
After 30 minutes, cultures were centrifuged at 9,000×g for 4 min, washed four times with PBS, and resuspended in a small volume of PBS. Cells were lysed by 5 successive freeze thaw cycles at −80° C. and 37° C. for 5 min each as described. The Bocillin FL, vancomycin FL or Alexa Fluor 488-gentamicin concentration was determined by measuring the amount of fluorescent material in a Synergy 2 microplate reader (Biotek) using excitation and emission wavelengths set at 485 and 530 nm, respectively. Linearity was obtained between 2 and 800 μg/mL; (R^2=0.9983) for AlexaFluor 488-gentamicin, between 0.5 and 100 μg/mL; (R^2=0.9928) for Bocillin FL, and between 0.25 and 50 μg/mL; (R^2=0.9919) for Vancomycin FL, with binding expressed as a ratio of the fluorescence of each sample divided with the sample protein content, determined by the 280/260 nm ratio using the using a BioTek Synergy 2 plate reader with the Take3 microdrop addition (Biotek)

NRS 384 Staphylococci = test: Radioisotope 45Ca2+ transport assay; assay type: cell-based, Staphylococcus aureus; conditions: ALAFAC addition, Ruthenium Red 30 μM
Description: Radioisotope ^45Ca^2+ transport assays. Staphylococcus aureus was grown to log phase, washed three times and resuspended in 1×PBS containing 0.5 mM CaCl2 (CaPBS). No glucose was added in order to minimize the interference created by extrusion of Ca^2+ via ATPase pumps. ^45CaCl2 (PerkinElmer; Waltham, Mass., USA) was added to the cells at a final concentration of 2.5 μCi/mL, followed by inhibitor compound, with each addition given two minutes equilibration time. The untreated baseline sample was measured at this point. The sample was then divided, ALAFAC was added to one of the tubes, and ^45Ca^2+ uptake was measured at various intervals. For each sample, 100 μL was dispensed onto Millipore 0.3 μm PHWP filters (EMD Millipore; Billerica, Mass., USA) presoaked in CaPBS, and immediately washed with 9 mL of CaPBS via syringe filtration through Millipore Swinnex® filter holders. Filters were placed in scintillation vials with 5 mL of scintillation fluid, and CPMs were detected on a Wallac 1409 liquid scintillation counter (Wallac Oy, Turku, Finland). The results were expressed as ΔCPM that was calculated for each sample at the indicated time points as the difference between ALAFAC-treated and untreated samples.

Escherichia coli [4] = test: Bactericidal activity of ALAFAC alone; assay type: cell-based

B1: ALAFAC: non-covalent complex of alpha-lactalbumin and fatty acid (oleic acid); labeled HAMLET or HL in drawings and tables (protein, UniProt P00709 20-142, looked up)
Alpha-lactalbumin: KQFTKCELSQLLKDIDGYGGIALPELICTMFHTSGYDTQAIVENNESTEYGLFQISNKLWCKSSQVPQSRNICDISCDKFLDDDITDDIMCAKKILDIKGIDYWLAHKALCTEKLEQWLCEKL
modifications: complexed with oleic acid
Question: Which Bactericidal activity (Escherichia coli [1]) does the source give for B1 here?
Answer: no detectable activity

Question: And the Bactericidal activity (Staphylococci [2])?
Answer: no detectable activity

Question: What about the “Increase of cell-associated level of gentamicin by ALAFAC” value (Staphylococci [3]; NRS384, ALAFAC 100 μg/mL, P=0.09) of the same molecule?
Answer: 2.6 fold

Question: What about the “Cell-associated level of vancomycin on addition of ALAFAC” value (Staphylococci [3]; VISA strain NRS 1) of the same molecule?
Answer: significantly increased

Question: What about the “Bocillin FL association with cells on addition of ALAFAC” value (Staphylococci [3]; methicillin-resistant strain NRS 384) of the same molecule?
Answer: significantly increased

Question: What about the “Bocillin FL association with cells on addition of ALAFAC” value (Staphylococci [3]; methicillin-sensitive strain) of the same molecule?
Answer: no significant increase

Question: What about the “Cell-associated level of vancomycin on addition of ALAFAC” value (Staphylococci [3]; vancomycin-sensitive strain) of the same molecule?
Answer: did not increase

Question: And the “Intracellular Ca2+ (45Ca2+ uptake)” value (NRS 384 Staphylococci)?
Answer: rose immediately

Question: What about the “Concentration of ALAFAC not triggering death” value (Escherichia coli [4]) of the same molecule?
Answer: exceeding 1,000 μg/ml
